Publication PMC11746146 (Nature Structural & Molecular Biology, 2024)

What was measured:
[1] = target: human guanylate-binding protein 1 (GBP1), non-farnesylated (human) (UniProt P32455); experiment: SEC-MALS; protein at 15 µM with the GTP transition-state mimic GDP·AlF3, incubated 5–10 min at room temperature; Superdex200 Increase 10/300 GL; 50 mM HEPES pH 7.4, 150 mM NaCl, 0.5 mM TCEP or DTT
[2] = target: T1, farnesylated human GBP1 (GBP1F) (human, UniProt P32455, C-terminal C15-farnesyl moiety (CaaX isoprenylation motif)); experiment: SEC-MALS; nanobody mixed with GBP1 or GBP1F, in the presence and absence of GDP·AlF3; SDS–PAGE (and western blot for GFP–Nb74) of peak fractions; conditions: both partners purified
T1 construct: human GBP1, UniProt P32455, from pETM14-GBP1, co-translationally farnesylated; also called GBP1F–GDP·AlF3; WT GBP1F; source: E. coli BL21(DE3), co-expressed with FNTA-FNTB, purified (TALON, 3C cleavage, HIC, SEC); not shown: His6, N-terminal, cleaved

[3] = target: T2, human guanylate-binding protein 1 (GBP1), non-farnesylated (human, UniProt P32455); experiment: as above; conditions: both partners purified
T2 construct: human GBP1, UniProt P32455, codon-optimized synthetic DNA in pETM14; called full-length in the results; Dimer studied with GDP·AlF3 (200 µM GDP, 10 mM NaF, 300 µM AlCl3, 5 mM MgCl2); also called hGBP1; WT GBP1; source: E. coli BL21(DE3), purified (TALON, 3C cleavage, SEC); not shown: His6, N-terminal, cleaved

[4] = target: the molecule itself; experiment: mass photometry; Refeyn OneMP; samples with GDP·AlF3 diluted to 15 nM in 50 mM HEPES pH 7.5, 150 mM NaCl
[5] = target: the molecule itself; experiment: SEC-MALS; protein at 15 µM with the GTP transition-state mimic GDP·AlF3, incubated 5–10 min at room temperature; Superdex200 Increase 10/300 GL; 50 mM HEPES pH 7.4, 150 mM NaCl, 0.5 mM TCEP or DTT

## human guanylate-binding protein 1 (GBP1), non-farnesylated (from UniProt P32455 1-592) (natural protein)
[1]
  stoichiometry N: 2

B1: nanobody 74 (Nb74) (VHH)
VHH: QVQLVESGGGLVQAGDSLRLSCAASGRALGNYYVGWFSQAPGKEREFVAAISWSGSSTFYADSVKGRFTISRDNAKNTVDLQMNSLKPEDTAVYYCAANPTAKLGSSWYQTPREFGYWGQGTQVTVSS
notes: llama nanobody selected by phage display; the entry PDB 8CQB / EMD-16794 is headed GBP1–GDP·AlF3–Nb74, but the deposited model is called the GBP1 dimer (956 protein residues), so Nb74 may not be in it; Raised in llamas immunized with monomeric GBP1, GBP1F or GDP·AlF3-stabilized dimeric GBP1; source: E. coli WK6 (su−), periplasmic extract, purified (Ni-NTA)
[2]
  stoichiometry N: 1
[3]
  stoichiometry N: 1 molar ratio

B2: GBP1 D308S, non-farnesylated (natural protein, human, UniProt P32455 1-592, looked up)
chain: MASEIHMTGPMCLIENTNGRLMANPEALKILSAITQPMVVVAIVGLYRTGKSYLMNKLAGKKKGFSLGSTVQSHTKGIWMWCVPHPKKPGHILVLLDTEGLGDVEKGDNQNDSWIFALAVLLSSTFVYNSIGTINQQAMDQLYYVTELTHRIRSKSSPDENENEVEDSADFVSFFPDFVWTLRDFSLDLEADGQPLTPDEYLTYSLKLKKGTSQKDETFNLPRLCIRKFFPKKKCFVFDRPVHRRKLAQLEKLQDEELDPEFVQQVADFCSYIFSNSKTKTLSGGIQVNGPRLESLVLTYVNAISSGSLPCMENAVLALAQIENSAAVQKAIAHYEQQMGQKVQLPTETLQELLDLHRDSEREAIEVFIRSSFKDVDHLFQKELAAQLEKKRDDFCKQNQEASSDRCSALLQVIFSPLEEEVKAGIYSKPGGYRLFVQKLQDLKKKYYEEPRKGIQAEEILQTYLKSKESMTDAILQTDQTLTEKEKEIEVERVKAESAQASAKMLQEMQRKNEQMMEQKERSYQEHLKQLTEKMENDRVQLLKEQERTLALKLQEQEQLLKEGFQKESRIMKNEIQDLQTKMRRRKACTIS
notes: human GBP1, UniProt P32455, variant made from pETM14-GBP1 by QuikChange mutagenesis; source: E. coli BL21(DE3), purified (TALON, 3C cleavage, SEC); not shown: His6, N-terminal, cleaved
[4]
  binding result: binds

B3: GBP1 Y143A, non-farnesylated (natural protein, human, UniProt P32455 1-592, looked up)
chain: MASEIHMTGPMCLIENTNGRLMANPEALKILSAITQPMVVVAIVGLYRTGKSYLMNKLAGKKKGFSLGSTVQSHTKGIWMWCVPHPKKPGHILVLLDTEGLGDVEKGDNQNDSWIFALAVLLSSTFVYNSIGTINQQAMDQLAYVTELTHRIRSKSSPDENENEVEDSADFVSFFPDFVWTLRDFSLDLEADGQPLTPDEYLTYSLKLKKGTSQKDETFNLPRLCIRKFFPKKKCFVFDRPVHRRKLAQLEKLQDEELDPEFVQQVADFCSYIFSNSKTKTLSGGIQVNGPRLESLVLTYVNAISSGDLPCMENAVLALAQIENSAAVQKAIAHYEQQMGQKVQLPTETLQELLDLHRDSEREAIEVFIRSSFKDVDHLFQKELAAQLEKKRDDFCKQNQEASSDRCSALLQVIFSPLEEEVKAGIYSKPGGYRLFVQKLQDLKKKYYEEPRKGIQAEEILQTYLKSKESMTDAILQTDQTLTEKEKEIEVERVKAESAQASAKMLQEMQRKNEQMMEQKERSYQEHLKQLTEKMENDRVQLLKEQERTLALKLQEQEQLLKEGFQKESRIMKNEIQDLQTKMRRRKACTIS
notes: as for B2
[4]
  binding result: binds

B4: GBP1F R584–586A (natural protein, human, UniProt P32455 1-592, looked up)
chain: MASEIHMTGPMCLIENTNGRLMANPEALKILSAITQPMVVVAIVGLYRTGKSYLMNKLAGKKKGFSLGSTVQSHTKGIWMWCVPHPKKPGHILVLLDTEGLGDVEKGDNQNDSWIFALAVLLSSTFVYNSIGTINQQAMDQLYYVTELTHRIRSKSSPDENENEVEDSADFVSFFPDFVWTLRDFSLDLEADGQPLTPDEYLTYSLKLKKGTSQKDETFNLPRLCIRKFFPKKKCFVFDRPVHRRKLAQLEKLQDEELDPEFVQQVADFCSYIFSNSKTKTLSGGIQVNGPRLESLVLTYVNAISSGDLPCMENAVLALAQIENSAAVQKAIAHYEQQMGQKVQLPTETLQELLDLHRDSEREAIEVFIRSSFKDVDHLFQKELAAQLEKKRDDFCKQNQEASSDRCSALLQVIFSPLEEEVKAGIYSKPGGYRLFVQKLQDLKKKYYEEPRKGIQAEEILQTYLKSKESMTDAILQTDQTLTEKEKEIEVERVKAESAQASAKMLQEMQRKNEQMMEQKERSYQEHLKQLTEKMENDRVQLLKEQERTLALKLQEQEQLLKEGFQKESRIMKNEIQDLQTKMAAAKACTIS
modifications: C-terminal C15-farnesyl moiety (CaaX isoprenylation motif)
notes: human GBP1, UniProt P32455, polybasic motif R584–R586 changed to alanines, farnesylated; also called GBP1F R584-R586; source: E. coli BL21(DE3), purified; not shown: His6, N-terminal, cleaved
[5]
  binding result: binds

B5: GBP1 K466D, non-farnesylated (natural protein, human, UniProt P32455 1-592, looked up)
chain: MASEIHMTGPMCLIENTNGRLMANPEALKILSAITQPMVVVAIVGLYRTGKSYLMNKLAGKKKGFSLGSTVQSHTKGIWMWCVPHPKKPGHILVLLDTEGLGDVEKGDNQNDSWIFALAVLLSSTFVYNSIGTINQQAMDQLYYVTELTHRIRSKSSPDENENEVEDSADFVSFFPDFVWTLRDFSLDLEADGQPLTPDEYLTYSLKLKKGTSQKDETFNLPRLCIRKFFPKKKCFVFDRPVHRRKLAQLEKLQDEELDPEFVQQVADFCSYIFSNSKTKTLSGGIQVNGPRLESLVLTYVNAISSGDLPCMENAVLALAQIENSAAVQKAIAHYEQQMGQKVQLPTETLQELLDLHRDSEREAIEVFIRSSFKDVDHLFQKELAAQLEKKRDDFCKQNQEASSDRCSALLQVIFSPLEEEVKAGIYSKPGGYRLFVQKLQDLKKKYYEEPRKGIQAEEILQTYLDSKESMTDAILQTDQTLTEKEKEIEVERVKAESAQASAKMLQEMQRKNEQMMEQKERSYQEHLKQLTEKMENDRVQLLKEQERTLALKLQEQEQLLKEGFQKESRIMKNEIQDLQTKMRRRKACTIS
notes: as for B2
[4]
  binding result: binds
